One assay addresses T1, zCON9_D.
T1 chain: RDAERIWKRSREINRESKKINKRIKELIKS
The experiment in a line: two-hybrid library CCmax.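 Further: natural log of median RNA to DNA barcode read ratio; higher means stronger binding.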

The next assay addresses T2, 4H_APH.
T2 chain: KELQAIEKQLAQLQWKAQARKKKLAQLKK
The experiment in a line: two-hybrid library CCmax.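 Further: natural log of median RNA to DNA barcode read ratio; higher means stronger binding.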

The target in the next assay is T3, P11-AA.
T3 chain: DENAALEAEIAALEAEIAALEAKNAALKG
The experiment in a line: two-hybrid library CCmax.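 Further: natural log of median RNA to DNA barcode read ratio; higher means stronger binding.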 Particulars: mean of both orientations.

A further assay addresses T4, AP3-AA.
T4 chain: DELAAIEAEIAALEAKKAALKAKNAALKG
Nature of the assay: two-hybrid library CCmax.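 Further: natural log of median RNA to DNA barcode read ratio; higher means stronger binding.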

The next assay deals with T5, AP6-AA.
T5 chain: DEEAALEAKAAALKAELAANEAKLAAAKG
Nature of the assay: two-hybrid library CCmax. Particulars: mean of both orientations.

In another assay the target is T6, P2-AA.
T6 chain: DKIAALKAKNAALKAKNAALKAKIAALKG
Nature of the assay: two-hybrid library CCmax.

The target of the next assay is GCN2_T. The experiment in a line: two-hybrid library CCmax.
The next assay addresses T7, P1-AA.
T7 chain: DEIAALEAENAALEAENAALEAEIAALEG
The experiment in a line: two-hybrid library CCmax. Particulars: mean of both orientations.

The target in the next assay is T8, P4-AA.
T8 chain: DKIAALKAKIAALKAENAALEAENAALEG
Nature of the assay: two-hybrid library CCmax. The following applies: mean of both orientations.

In a further assay the target is T9, zCON9_A.
T9 chain: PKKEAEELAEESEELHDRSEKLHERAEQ
The experiment in a line: two-hybrid library CCmax.

For another assay, the target named is T10, AP8-AA.
T10 chain: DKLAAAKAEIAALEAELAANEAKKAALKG
Nature of the assay: two-hybrid library CCmax. The following applies: mean of both orientations.

For another assay, the target named is 4H_GCN4. The experiment in a line: two-hybrid library CCmax.
4H_GCN4, sequence (chain, as listed by the source): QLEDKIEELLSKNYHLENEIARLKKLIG
A further assay deals with T11, AP5-AA.
T11 chain: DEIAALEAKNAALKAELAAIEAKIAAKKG
Nature of the assay: two-hybrid library CCmax. Particulars: mean of both orientations.

Another assay addresses T12, O14-AA.
T12 chain: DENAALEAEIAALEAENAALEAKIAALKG
Nature of the assay: two-hybrid library CCmax. The following applies: mean of both orientations.

The next assay addresses T13, 4H_APH3.
T13 chain: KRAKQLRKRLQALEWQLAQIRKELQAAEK
The experiment in a line: two-hybrid library CCmax.

For the next assay, the target named is T14, zCON9_B.
T14 chain: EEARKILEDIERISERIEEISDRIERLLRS
Nature of the assay: two-hybrid library CCmax. Particulars: mean of both orientations.

For a further assay, the target named is T15, P12-AA.
T15 chain: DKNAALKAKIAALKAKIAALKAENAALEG
The experiment in a line: two-hybrid library CCmax. The following applies: mean of both orientations.

In the next assay the target is T16, AP2-AA.
T16 chain: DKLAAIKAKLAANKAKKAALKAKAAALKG
The experiment in a line: two-hybrid library CCmax.

A further assay deals with T17, P8-AA.
T17 chain: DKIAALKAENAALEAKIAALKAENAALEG
The experiment in a line: two-hybrid library CCmax. Particulars: mean of both orientations.

The target of another assay is T18, AP4-AA.
T18 chain: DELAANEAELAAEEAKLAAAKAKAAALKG
Nature of the assay: two-hybrid library CCmax. The following applies: mean of both orientations.

A further assay addresses T19, P10-AA.
T19 chain: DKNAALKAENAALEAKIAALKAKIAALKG
The experiment in a line: two-hybrid library CCmax. The following applies: mean of both orientations.

The target in a further assay is T20, O11-AA.
T20 chain: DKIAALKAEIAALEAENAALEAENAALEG
The experiment in a line: two-hybrid library CCmax. The following applies: mean of both orientations.

A further assay deals with T21, AP7-AA.
T21 chain: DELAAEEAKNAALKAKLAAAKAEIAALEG
Nature of the assay: two-hybrid library CCmax. The following applies: mean of both orientations.

The target of a further assay is T22, P7-AA.
T22 chain: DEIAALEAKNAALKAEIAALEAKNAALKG
Nature of the assay: two-hybrid library CCmax.

For the next assay, the target named is T23, 4H_BCR.
T23 chain: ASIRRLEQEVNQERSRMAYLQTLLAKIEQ
Nature of the assay: two-hybrid library CCmax. Particulars: mean of both orientations.

A further assay has as its target T24, AP1-AA.
T24 chain: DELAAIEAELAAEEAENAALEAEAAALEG
The experiment in a line: two-hybrid library CCmax.

For another assay, the target named is T25, O13-AA.
T25 chain: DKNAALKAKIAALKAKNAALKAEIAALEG
Nature of the assay: two-hybrid library CCmax. The following applies: mean of both orientations.

The target of the next assay is T26, P3-AA.
T26 chain: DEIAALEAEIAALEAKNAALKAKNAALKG
Nature of the assay: two-hybrid library CCmax.

A further assay concerns the target T27, P9-AA.
T27 chain: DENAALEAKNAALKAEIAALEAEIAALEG
Nature of the assay: two-hybrid library CCmax.

A further assay has as its target T28, 4H344-bA.
T28 chain: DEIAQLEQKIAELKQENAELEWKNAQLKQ
Nature of the assay: two-hybrid library CCNG1.

For a further assay, the target named is T29, 4H2568-bA.
T29 chain: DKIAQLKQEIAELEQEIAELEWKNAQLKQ
Nature of the assay: two-hybrid library CCNG1.

A further assay deals with T30, 4H2619-bA.
T30 chain: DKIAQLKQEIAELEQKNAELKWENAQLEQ
Nature of the assay: two-hybrid library CCNG1.

In a further assay the target is T31, 4H3907-bA.
T31 chain: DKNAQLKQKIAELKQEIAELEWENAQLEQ
Nature of the assay: two-hybrid library CCNG1.

Another assay concerns the target T32, 4H470-bA.
T32 chain: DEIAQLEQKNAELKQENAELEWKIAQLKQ
Nature of the assay: two-hybrid library CCNG1.

The next assay concerns the target T33, 4H2745-bA.
T33 chain: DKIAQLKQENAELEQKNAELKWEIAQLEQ
Nature of the assay: two-hybrid library CCNG1.

Another assay deals with T34, 4H3961-bA.
T34 chain: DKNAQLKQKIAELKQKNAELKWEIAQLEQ
The experiment in a line: two-hybrid library CCNG1.

A further assay has as its target T35, 4H363-bA.
T35 chain: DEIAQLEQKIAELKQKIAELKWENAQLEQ
The experiment in a line: two-hybrid library CCNG1.

For KELQAIEKQLAQLQWKAQARKKKLAQLKK [4H_APH], the interaction score with zCON9_D was -1.96; with 4H_APH, -2.1; with P11-AA it was -1.03; in the assay with AP3-AA, -1.35; in the assay with AP6-AA, -2.09; in the assay with P2-AA it was -1.82. For the same molecule, the interaction score was -2.07 with GCN2_T; -2.11 with P1-AA; -1.9 with P4-AA; -1.26 with zCON9_A; -1.48 with AP8-AA; -2.22 in the assay with 4H_GCN4. Also, the interaction score with AP5-AA is -2.21; with O14-AA it was -1.65; with 4H_APH3, -1.54; with zCON9_B, -2.09; with P12-AA, -1.3; with AP2-AA, -1.63. Further, the interaction score is -1.89 in the assay with P8-AA; -1.31 with AP4-AA; -1.47 with P10-AA; -1.39 in the assay with O11-AA; -2.03 with AP7-AA; -1.87 in the assay with P7-AA. The interaction score with 4H_BCR is -1.64; with AP1-AA, -1.47; with O13-AA it was -1.81; with P3-AA it was -0.728; with P9-AA it was -1.86.
As for DKIAQLKQEIAELEQEIAELEWKNAQLKQ [4H2568-bA], the interaction score in the assay with 4H344-bA is 0.491; in the assay with 4H2568-bA, 1.94; with 4H2619-bA it was 0.254; with 4H3907-bA, 1.89; with 4H470-bA it was -0.973; in the assay with 4H2745-bA it was -0.347. In addition, the interaction score was 2.32 in the assay with 4H3961-bA and 0.53 with 4H363-bA.
